Measured values taken from publication PMC9482650, “Quantitative fragmentomics allow affinity mapping of interactomes” (Nature Communications, 2022).

T1: APBA3_1, O96018
T1 sequence (O96018 389-490, limits assumed, looked up): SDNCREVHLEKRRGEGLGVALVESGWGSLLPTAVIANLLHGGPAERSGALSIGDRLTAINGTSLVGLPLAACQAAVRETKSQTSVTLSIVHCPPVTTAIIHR

T2: CARD11, Q9BXL7
T2 sequence (Q9BXL7 662-765, limits assumed, looked up): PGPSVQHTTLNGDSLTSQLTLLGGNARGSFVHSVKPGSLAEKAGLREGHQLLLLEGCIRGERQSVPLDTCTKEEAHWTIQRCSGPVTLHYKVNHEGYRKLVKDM

T3: DFNB31_1, Q9P202
T3 sequence (Q9P202 135-233, limits assumed, looked up): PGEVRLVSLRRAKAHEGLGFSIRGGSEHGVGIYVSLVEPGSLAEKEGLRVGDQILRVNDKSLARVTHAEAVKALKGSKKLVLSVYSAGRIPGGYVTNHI

T4: DVL3, Q92997
T4 sequence (Q92997 244-331, limits assumed, looked up): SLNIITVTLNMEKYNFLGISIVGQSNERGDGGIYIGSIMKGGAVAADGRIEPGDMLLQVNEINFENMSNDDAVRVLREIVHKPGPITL

T5: GRIP1_2, Q9Y3R0
T5 sequence (Q9Y3R0 145-248, limits assumed, looked up): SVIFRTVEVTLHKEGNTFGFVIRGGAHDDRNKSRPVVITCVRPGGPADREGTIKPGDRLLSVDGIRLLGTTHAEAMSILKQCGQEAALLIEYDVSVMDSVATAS

T6: HTRA3, P83110
T6 sequence (P83110 354-453, limits assumed, looked up): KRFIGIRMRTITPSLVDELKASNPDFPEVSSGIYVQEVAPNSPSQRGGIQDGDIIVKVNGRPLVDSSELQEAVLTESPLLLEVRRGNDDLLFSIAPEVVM

T7: LIN7A, O14910
T7 sequence (O14910 103-200, limits assumed, looked up): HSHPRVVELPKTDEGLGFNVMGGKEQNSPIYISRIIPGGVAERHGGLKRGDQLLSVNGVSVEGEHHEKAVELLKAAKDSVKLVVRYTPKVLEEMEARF

T8: LNX2_2, Q8N448
T8 sequence (Q8N448 334-432, limits assumed, looked up): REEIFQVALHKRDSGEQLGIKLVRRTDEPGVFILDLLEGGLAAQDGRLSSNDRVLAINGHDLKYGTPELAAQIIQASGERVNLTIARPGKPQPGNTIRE

T9: MPDZ_12, O75970
T9 sequence (O75970 1857-1958, limits assumed, looked up): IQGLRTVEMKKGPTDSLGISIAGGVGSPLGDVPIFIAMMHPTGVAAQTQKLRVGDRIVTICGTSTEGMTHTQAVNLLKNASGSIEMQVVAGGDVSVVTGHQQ

T10: PDZD7_3, Q9H5P4
T10 sequence (Q9H5P4 857-944, limits assumed, looked up): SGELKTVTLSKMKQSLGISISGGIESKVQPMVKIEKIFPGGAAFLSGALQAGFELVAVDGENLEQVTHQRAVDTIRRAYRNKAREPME

T11: PDZRN3_1, Q9UPQ7
T11 sequence (Q9UPQ7 244-349, limits assumed, looked up): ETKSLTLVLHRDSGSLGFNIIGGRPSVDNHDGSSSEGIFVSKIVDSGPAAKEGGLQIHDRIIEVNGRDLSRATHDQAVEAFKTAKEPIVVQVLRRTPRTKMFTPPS


Legend:
Assay in all cases: holdup assay
Set-up in all cases: key: below the threshold = too weak to quantify, mostly under pKd 3.1 to 4
Details in all cases: plain residues with an end cap or a label only (N-terminal biotin on a linker: ado-ado)
APBA3_1, O96018 = biological target: T1, APBA3_1, O96018
CARD11, Q9BXL7 = biological target: T2, CARD11, Q9BXL7
DFNB31_1, Q9P202 = biological target: T3, DFNB31_1, Q9P202
DLG2_2, Q15700 = biological target: DLG2_2, Q15700
DVL3, Q92997 = biological target: T4, DVL3, Q92997
GORASP1, Q9BQQ3 = biological target: GORASP1, Q9BQQ3
GORASP2, Q9H8Y8 = biological target: GORASP2, Q9H8Y8
GRIP1_2, Q9Y3R0 = biological target: T5, GRIP1_2, Q9Y3R0
GRIP2_3, Q9C0E4 = biological target: GRIP2_3, Q9C0E4
GRIP2_6, Q9C0E4 = biological target: GRIP2_6, Q9C0E4
GRIP2_7, Q9C0E4 = biological target: GRIP2_7, Q9C0E4
HTRA3, P83110 = biological target: T6, HTRA3, P83110
Inadl_1, Q8NI35 = biological target: Inadl_1, Q8NI35
Inadl_4, Q8NI35 = biological target: Inadl_4, Q8NI35
Inadl_9, Q8NI35 = biological target: Inadl_9, Q8NI35
LAP2, Q96RT1 = biological target: LAP2, Q96RT1
LIN7A, O14910 = biological target: T7, LIN7A, O14910
LNX2_2, Q8N448 = biological target: T8, LNX2_2, Q8N448
MAGI1_1, Q96QZ7 = biological target: MAGI1_1, Q96QZ7
MAGI2_5, Q86UL8 = biological target: MAGI2_5, Q86UL8
MAGI2_6, Q86UL8 = biological target: MAGI2_6, Q86UL8
MPDZ_12, O75970 = biological target: T9, MPDZ_12, O75970
NHERF4_4, Q86UT5 = biological target: NHERF4_4, Q86UT5
PDZD7_3, Q9H5P4 = biological target: T10, PDZD7_3, Q9H5P4
PDZRN3_1, Q9UPQ7 = biological target: T11, PDZRN3_1, Q9UPQ7
SCRIB_3, Q14160 = biological target: SCRIB_3, Q14160
TJP2_1, Q9UDY2 = biological target: TJP2_1, Q9UDY2
Chain of TJP2_1, Q9UDY2 (Q9UDY2 24-128): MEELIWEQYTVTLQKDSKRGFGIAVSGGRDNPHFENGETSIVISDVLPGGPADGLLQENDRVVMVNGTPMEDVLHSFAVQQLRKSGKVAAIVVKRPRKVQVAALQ

Chain of DLG2_2, Q15700 (Q15700 189-283): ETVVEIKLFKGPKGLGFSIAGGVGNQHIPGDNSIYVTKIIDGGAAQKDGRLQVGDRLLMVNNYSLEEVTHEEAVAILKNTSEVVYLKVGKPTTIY
Chain of MAGI1_1, Q96QZ7 (Q96QZ7 1-106): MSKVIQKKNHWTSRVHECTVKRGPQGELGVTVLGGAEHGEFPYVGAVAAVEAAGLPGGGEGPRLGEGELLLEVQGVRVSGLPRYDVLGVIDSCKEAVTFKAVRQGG
Chain of Inadl_1, Q8NI35 (Q8NI35 113-229): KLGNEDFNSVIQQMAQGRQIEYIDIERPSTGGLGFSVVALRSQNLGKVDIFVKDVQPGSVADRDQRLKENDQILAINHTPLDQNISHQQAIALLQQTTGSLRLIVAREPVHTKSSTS
Chain of GORASP1, Q9BQQ3 (Q9BQQ3 1-208): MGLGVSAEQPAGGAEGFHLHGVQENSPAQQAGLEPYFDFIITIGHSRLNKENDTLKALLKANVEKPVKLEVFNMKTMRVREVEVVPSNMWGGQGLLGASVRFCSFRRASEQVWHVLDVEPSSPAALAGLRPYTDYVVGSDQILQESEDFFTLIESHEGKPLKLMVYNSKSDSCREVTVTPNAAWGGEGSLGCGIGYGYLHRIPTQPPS
Chain of Inadl_9, Q8NI35 (Q8NI35 1530-1615): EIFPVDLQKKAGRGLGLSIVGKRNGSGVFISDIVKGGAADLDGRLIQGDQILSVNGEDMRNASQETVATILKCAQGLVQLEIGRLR
Chain of LAP2, Q96RT1 (Q96RT1 other isoform, or with tags, fused parts or gaps): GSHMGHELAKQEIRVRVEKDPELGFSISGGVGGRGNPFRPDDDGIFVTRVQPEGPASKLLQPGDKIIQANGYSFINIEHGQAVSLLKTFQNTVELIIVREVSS
Chain of NHERF4_4, Q86UT5 (Q86UT5 464-550): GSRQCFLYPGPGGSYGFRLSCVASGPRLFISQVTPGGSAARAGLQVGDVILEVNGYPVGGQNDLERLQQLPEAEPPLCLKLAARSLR
Chain of MAGI2_6, Q86UL8 (Q86UL8 1141-1229): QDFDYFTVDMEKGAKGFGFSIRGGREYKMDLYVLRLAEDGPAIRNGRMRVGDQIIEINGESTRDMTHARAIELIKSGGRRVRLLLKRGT
Chain of GRIP2_6, Q9C0E4 (Q9C0E4 648-740): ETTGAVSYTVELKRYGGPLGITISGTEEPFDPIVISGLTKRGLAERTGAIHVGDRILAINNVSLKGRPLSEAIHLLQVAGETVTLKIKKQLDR
Chain of Inadl_4, Q8NI35 (Q8NI35 547-651): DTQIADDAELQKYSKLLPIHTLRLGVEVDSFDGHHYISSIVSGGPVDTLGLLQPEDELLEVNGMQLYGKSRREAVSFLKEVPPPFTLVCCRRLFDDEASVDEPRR
Chain of MAGI2_5, Q86UL8 (Q86UL8 915-1017): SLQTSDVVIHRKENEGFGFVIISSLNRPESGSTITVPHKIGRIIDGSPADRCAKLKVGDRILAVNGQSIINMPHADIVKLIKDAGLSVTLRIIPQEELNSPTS
Chain of GRIP2_3, Q9C0E4 (Q9C0E4 238-339): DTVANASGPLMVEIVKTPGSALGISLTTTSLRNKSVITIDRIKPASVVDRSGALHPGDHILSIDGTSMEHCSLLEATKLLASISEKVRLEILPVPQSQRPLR
Chain of SCRIB_3, Q14160 (Q14160 999-1103): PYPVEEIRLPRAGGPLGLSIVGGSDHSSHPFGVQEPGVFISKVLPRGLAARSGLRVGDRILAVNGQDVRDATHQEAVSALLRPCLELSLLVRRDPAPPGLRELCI
Chain of GRIP2_7, Q9C0E4 (Q9C0E4 934-1023): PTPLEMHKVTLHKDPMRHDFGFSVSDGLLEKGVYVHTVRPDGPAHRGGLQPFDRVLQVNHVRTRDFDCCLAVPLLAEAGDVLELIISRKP

Row | Binder | pKd (APBA3_1, O96018) | pKd (CARD11, Q9BXL7) | pKd (DFNB31_1, Q9P202) | pKd (DLG2_2, Q15700) | pKd (DVL3, Q92997) | pKd (GORASP1, Q9BQQ3) | pKd (GORASP2, Q9H8Y8) | pKd (GRIP1_2, Q9Y3R0) | pKd (GRIP2_3, Q9C0E4) | pKd (GRIP2_6, Q9C0E4) | pKd (GRIP2_7, Q9C0E4) | pKd (HTRA3, P83110) | pKd (Inadl_1, Q8NI35) | pKd (Inadl_4, Q8NI35) | pKd (Inadl_9, Q8NI35) | pKd (LAP2, Q96RT1) | pKd (LIN7A, O14910) | pKd (LNX2_2, Q8N448) | pKd (MAGI1_1, Q96QZ7) | pKd (MAGI2_5, Q86UL8) | other results
1 | PDSNPEESSV [SEMA4C, Q9C0C4] | below the threshold | below the threshold | 4 | 3.85 | below the threshold | below the threshold | below the threshold | below the threshold | below the threshold | below the threshold | below the threshold | below the threshold | below the threshold | 3.48 | 3.57 | 4.46 | below the threshold | below the threshold | 3.57 | 3.89 | pKd (MAGI2_6, Q86UL8): 4.27; pKd (MPDZ_12, O75970): below the threshold; pKd (NHERF4_4, Q86UT5): below the threshold; pKd (PDZD7_3, Q9H5P4): 3.9; pKd (PDZRN3_1, Q9UPQ7): 4.37; pKd (SCRIB_3, Q14160): 4.45; pKd (TJP2_1, Q9UDY2): below the threshold
2 | SSGSTSSSRI [ADGRG1, Q9Y653] | below the threshold | below the threshold | 4.27 | 3.49 | below the threshold | below the threshold | 3.57 | below the threshold | below the threshold | below the threshold | below the threshold | below the threshold | below the threshold | below the threshold | below the threshold | below the threshold | below the threshold | below the threshold | below the threshold | below the threshold | pKd (MAGI2_6, Q86UL8): below the threshold; pKd (MPDZ_12, O75970): below the threshold; pKd (NHERF4_4, Q86UT5): below the threshold; pKd (PDZD7_3, Q9H5P4): 4.3; pKd (PDZRN3_1, Q9UPQ7): below the threshold; pKd (SCRIB_3, Q14160): below the threshold; pKd (TJP2_1, Q9UDY2): below the threshold
3 | NPETRDETQL [KCNT1, Q5JUK3] | below the threshold | below the threshold | 4.02 | below the threshold | below the threshold | below the threshold | below the threshold | below the threshold | below the threshold | below the threshold | below the threshold | below the threshold | below the threshold | below the threshold | below the threshold | below the threshold | below the threshold | below the threshold | below the threshold | 3.75 | pKd (MAGI2_6, Q86UL8): 3.51; pKd (MPDZ_12, O75970): below the threshold; pKd (NHERF4_4, Q86UT5): 3.99; pKd (PDZD7_3, Q9H5P4): 4.66; pKd (PDZRN3_1, Q9UPQ7): 4.47; pKd (SCRIB_3, Q14160): 4.84; pKd (TJP2_1, Q9UDY2): below the threshold
4 | PEEGKKQSQC [GAGE12J, A6NER3] | below the threshold | below the threshold | below the threshold | below the threshold | below the threshold | below the threshold | below the threshold | below the threshold | below the threshold | below the threshold | below the threshold | below the threshold | below the threshold | below the threshold | below the threshold | below the threshold | below the threshold | below the threshold | below the threshold | below the threshold | pKd (MAGI2_6, Q86UL8): below the threshold; pKd (MPDZ_12, O75970): below the threshold; pKd (NHERF4_4, Q86UT5): below the threshold; pKd (PDZD7_3, Q9H5P4): below the threshold; pKd (PDZRN3_1, Q9UPQ7): below the threshold; pKd (SCRIB_3, Q14160): below the threshold; pKd (TJP2_1, Q9UDY2): below the threshold
5 | PKLMGVETVV [DUSP10, Q9Y6W6] | below the threshold | below the threshold | 4.09 | 5.36 | below the threshold | 4.36 | 5.03 | below the threshold | below the threshold | below the threshold | below the threshold | below the threshold | below the threshold | below the threshold | 3.55 | 4.03 | 3.58 | 5.21 | 3.52 | 4.06 | pKd (MAGI2_6, Q86UL8): 3.99; pKd (MPDZ_12, O75970): below the threshold; pKd (NHERF4_4, Q86UT5): below the threshold; pKd (PDZD7_3, Q9H5P4): 5.19; pKd (PDZRN3_1, Q9UPQ7): 3.69; pKd (SCRIB_3, Q14160): 4.44; pKd (TJP2_1, Q9UDY2): below the threshold
